This assay addresses T1, human TRβ1ΔAB (TR DBD-LBD), thyroid hormone receptor β1 residues 102-461 (human, UniProt P10828-1 102-461).
T1 construct: Holo form (T3/TR) made by adding T3 in 3 times molar excess; also called TR DL; TRβ1 DL
T1 sequence (looked up): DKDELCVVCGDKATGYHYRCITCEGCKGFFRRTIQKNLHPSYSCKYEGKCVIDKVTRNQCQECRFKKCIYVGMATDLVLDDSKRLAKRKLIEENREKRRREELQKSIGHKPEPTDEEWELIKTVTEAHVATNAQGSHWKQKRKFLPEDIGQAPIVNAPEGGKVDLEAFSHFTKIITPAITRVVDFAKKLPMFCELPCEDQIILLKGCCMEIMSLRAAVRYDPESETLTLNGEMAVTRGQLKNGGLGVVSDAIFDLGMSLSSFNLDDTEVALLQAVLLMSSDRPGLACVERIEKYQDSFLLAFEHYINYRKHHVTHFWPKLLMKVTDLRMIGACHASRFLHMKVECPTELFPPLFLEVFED
Kind of assay: fluorescence polarisation; fluorescence anisotropy; 10nM fluorescein-labeled GATA2-Zf titrated with unlabeled, unliganded TR DBD-LBD or TR DBD, 1nM to 10.000nM; 10°C, 50mM NaCl, 20mM Hepes pH8.0, 3mM dithiothreitol, 5% glycerol. To be noted: both partners purified.

B1: fluorescein-labelled zinc finger region of GATA2 (GATA2-Zf), residues 291-412 (domain or fragment)
chain: not shown
modifications: fluorescein (fluorescein-isothiocyanate, three times molar excess; site not stated)
notes: GATA2, zinc finger region, residues 291-412; removal of the His tag is surmised from that; Two vectors are named (pET31a, pET28a(+)); also called fluorophore-labelled GATA2-Zf; fluorescein-labeled GATA2-Zf
Molecule B1 showed a Kd of 1170 nM.
